B1: M13 filamentous bacteriophage (construct not stated) (other)
chain: AETVESCLAKPHTENSFTNVWKDDKTLDRYANYEGCLWNATGVVVCTGDETQCYGTWVPIGLAIPENEGGGSEGGGSEGGGSEGGGTKPPEYGDTPIPGYTYINPLDGTYPPGTEQNPANPNPSLEESQPLNTFMFQNNRFRNRQGALTVYTGTVTQGTDPVKTYYQYTPVSSKAMYDAYWNGKFRDCAFHSGFNEDPFVCEYQGQSSDLPQPPVNAGGGSGGGSGGGSEGGGSEGGGSEGGGSEGGGSGGGSGSGDFDYEKMANANKGAMTENADENALQSDAKGKLDSVATDYGAAIDGFIGDVSGLANGNGATGDFAGSNSQMAQVGDGDNSPLMNNFRQYLPSLPQSVECRPFVFSAGKPYEFSIDCDKINLFRGVFAFLLYVATFMYVFSTFANILRNKES
notes: Whole phage particle; also called M13 phage; wildtype M13
B2: recombinant soluble g3p fragment comprising the N1 and N2 domains, rs-g3p(N1N2), Construct 3 (other)
chain: MAETVESCLAKSHTENSFTNVWKDDKTLDRYANYEGCLWNATGVVVCTGDETQCYGTWVPIGLAIPENEGGGSEGGGSEGGGSEGGGTKPPEYGDTPIPGYTYINPLDGTYPPGTEQNPANPNPSLEESQPLNTFMFQNNRFRNRQGALTVYTGTVTQGTDPVKTYYQYTPVSSKAMYDAYWNGKFRDCAFHSGFNEDLFVCEYQGQSSDLPQPPVNAPSGHHHHHH

How the values were obtained:
[1] = molecular target: T1, amyloid-β 1-42 fibers (fAβ42) (human, UniProt P05067 672-713); assay: SPR, fAβ immobilized on the chip, 10^14 phage/mL
T1 construct: domain: amyloid-β 1-42; Aggregated fibrillar state; also called Aβ fibrils; Aβ fibers

[2] = molecular target: T1, amyloid-β 1-42 fibers (fAβ42); assay: cell-based or functional assay

T1 sequence (P05067 672-713 limits assumed): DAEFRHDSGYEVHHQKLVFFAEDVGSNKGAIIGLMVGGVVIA

Binder | Kd [1] | ThT fluorescence assay, IC50 [2]
B1 | ~4 nM | 
B2 |  | ~20 nM
